4 molecules from publication PMC6291300 can be followed below.

Like-named read-outs stand apart in the source and are kept apart here.

Assay [1] deals with Rozanolixizumab (1519.g57 IgG4P). The assay can be described thus: SPR. A general note: Surface plasmon resonance follows binding to a sensor surface in real time, without labels.
Assay [2] has the same target. The assay can be described thus: SPR. The source holds these as a separate data set.
Assay [3] deals with Cynomolgus monkey FcRn (α-chain and β2m) on stably transfected MDCK cells (cynomolgus monkey) (UniProt Q8SPV9). The assay can be described thus: flow cytometry on cells. Background: In flow cytometry, cells or beads pass a laser one at a time.
Sequence of UniProt Q8SPV9 (Q8SPV9 24-365, chain 1 of 2): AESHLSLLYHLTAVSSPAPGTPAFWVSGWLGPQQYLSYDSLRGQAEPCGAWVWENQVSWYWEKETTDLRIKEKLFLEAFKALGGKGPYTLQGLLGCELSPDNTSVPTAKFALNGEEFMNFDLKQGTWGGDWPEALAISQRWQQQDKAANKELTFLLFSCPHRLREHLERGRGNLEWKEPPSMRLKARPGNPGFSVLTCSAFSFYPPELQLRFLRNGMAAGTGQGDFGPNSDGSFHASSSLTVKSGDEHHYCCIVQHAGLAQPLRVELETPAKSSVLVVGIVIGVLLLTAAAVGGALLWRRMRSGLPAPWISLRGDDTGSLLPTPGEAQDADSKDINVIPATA
Sequence of UniProt Q8SPV9 (Q8SPW0 21-119, chain 2 of 2, further chain): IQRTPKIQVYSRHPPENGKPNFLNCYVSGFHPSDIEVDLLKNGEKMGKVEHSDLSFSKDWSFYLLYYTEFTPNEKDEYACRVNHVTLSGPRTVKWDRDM
For assay [4], the target named is Human FcRn (α-chain and β2m) on stably transfected MDCK cells (human) (UniProt P55899). The assay can be described thus: flow cytometry on cells.
Assay [5] has the same target. The assay can be described thus: flow cytometry on cells. The source holds these as a separate data set.
In assay [6] the target is Rozanolixizumab (1519.g57 IgG4P). The assay can be described thus: SPR. This is another data set of the same source.

Consider “Human FcRn extracellular domain (α-chain with β2-microglobulin) (from UniProt P55899 24-297; P61769 21-119) (complex)”, for which the values for the Kd in assay [1] and in assay [2] were below 0.023 nM and 0.034 nM, respectively.

“Rozanolixizumab (1519.g57 IgG4P) (antibody)”: the Kd in assay [3] turned out to be 1 nM; in assay [4], 0.43 nM; in assay [5], 0.37 nM.

Consider 1519.g57 Fab’, for which the values for the Kd in assay [4] and in assay [5] were 0.42 nM and 0.44 nM, respectively.

B1: Rat FcRn extracellular domain (α-chain with β2-microglobulin) (complex)
chain 1: AEPRLPLMYHLAAVSDLSTGLPSFWATGWLGAQQYLTYNNLRQEADPCGAWIWENQVSWYWEKETTDLKSKEQLFLEAIRTLENQINGTFTLQGLLGCELAPDNSSLPTAVFALNGEEFMRFNPRTGNWSGEWPETDIVGNLWMKQPEAARKESEFLLTSCPERLLGHLERGRQNLEWKEPPSMRLKARPGNSGSSVLTCAAFSFYPPELKFRFLRNGLASGSGNCSTGPNGDGSFHAWSLLEVKRGDEHHYQCQVEHEGLAQPLTVDLDSPARSS
chain 2: IQKTPQIQVYSRHPPENGKPNFLNCYVSQFHPPQIEIELLKNGKKIPNIEMSDLSFSKDWSFYILAHTEFTPTETDVYACRVKHVTLKEPKTVTWDRDM
Consider B1, for which the Kd in assay [6] stood at 99 nM.

One may read the Kd as the concentration at which binding is half-saturated.
